5 molecules from paper PMC8049779 (Biochemistry, 2020) can be followed below.

Broadly, the Kd is a measure of binding affinity in units of concentration. Read a low Kd as higher affinity.

Substitutions are numbered along the chain they refer to. Numbers in names are those of the source.

The target of one data set is T1, LmFPPS (Leishmania major, UniProt Q4QBL1).
T1 sequence (Q4QBL1 1-362): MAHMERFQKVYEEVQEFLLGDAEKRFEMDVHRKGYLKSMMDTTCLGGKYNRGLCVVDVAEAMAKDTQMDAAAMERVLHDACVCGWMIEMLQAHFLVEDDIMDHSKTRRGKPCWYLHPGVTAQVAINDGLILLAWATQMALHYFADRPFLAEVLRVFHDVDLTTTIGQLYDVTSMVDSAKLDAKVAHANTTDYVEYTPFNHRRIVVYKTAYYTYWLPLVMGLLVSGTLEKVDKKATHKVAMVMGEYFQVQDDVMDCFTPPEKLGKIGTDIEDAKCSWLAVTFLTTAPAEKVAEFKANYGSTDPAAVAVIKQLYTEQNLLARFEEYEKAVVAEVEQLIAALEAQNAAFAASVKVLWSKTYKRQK
Nature of the data set: SPR, steady-state affinity, protein immobilized on CM5 chip. It is filed as binding. Background: In SPR one partner is held on a chip, and binding of the other changes the refractive index at the surface.

The data set “crystal structure” concerns the molecule itself. Nature of the data set: crystal structure.

`CC(C)=CCC/C(C)=C/CC/C(C)=C/CO[P@@](=O)(O)OP(=O)(O)O` [FPP] had a Kd at LmFPPS of 36.6 µM.
On the same count and under the same terms, for `CC(C)=CCC/C(C)=C/COP(=O)(O)OP(=O)(O)O` [GPP] the value was 0.049 µM.

B1: E97Y-LmFPPS (Leishmania major farnesyl diphosphate synthase, E97Y mutant) (enzyme)
chain: T1 sequence (Q4QBL1 1-362) with E97Y
Regarding B1, the binding result in the data set “crystal structure” is “binds”.

B2: T164W-LmFPPS (Leishmania major farnesyl diphosphate synthase, T164W mutant) (enzyme)
chain: T1 sequence (Q4QBL1 1-362) with T164W
In the case of B2, in “crystal structure”, the binding result is reported as “binds”.

B3: T164Y-LmFPPS (Leishmania major farnesyl diphosphate synthase, T164Y mutant) (enzyme)
chain: T1 sequence (Q4QBL1 1-362) with T164Y
As for B3, in “crystal structure”, the binding result is listed as “binds”.
